Measurements as given in patent publication US20250188151A1, “C-JUN ANTAGONIST PEPTIDES” (The University of Bath, priority 2022, published 2025).
Bridge positions count the residues as written; N and C are the ends. Peptide text beside a SMILES is read from it.

How the values were obtained:
cJun bZIP [1] = target: cJun bZIP (Homo sapiens, UniProt P05412, S292Y); assay: CD spectra and thermal denaturation of peptide/cJun heterodimers; conditions: peptide (5 μM)/c-Jun (5 μM) heterodimer; Table 6
Description: Circular Dichroism (CD): An Applied Photophysics Chirascan was used for CD measurements, with a 200 μL sample in a 1 mm path length CD cell. Protein/DNA samples were suspended in 150 mM potassium phosphate, 150 mM potassium fluoride and 5 mM TCEP at pH 7.4 and were equilibrated for 30 minutes before measurement. […] These scans were averaged and converted to molar residue ellipticities (MRE). Thermal denaturation experiments were performed by measuring the ellipticity at 222 nm over a 1 to 90° C. gradient at 1° C. increments. Post-melt scans at 20° C. confirmed the transitions were reversible as they overlaid within 10% of the pre-melt scan.
Circular Dichroism (CD): An Applied Photophysics Chirascan was used for CD measurements, with a 200 μL sample in a 1 mm path length CD cell. Protein/DNA samples were suspended in 150 mM potassium phosphate, 150 mM potassium fluoride and 5 mM TCEP at pH 7.4 and were equilibrated for 30minutes before measurement. […] Thermal denaturation experiments were performed by measuring the ellipticity at 222 nm over a 1 to 90° C. gradient at 1° C. increments. Post-melt scans at 20° C. confirmed the transitions were reversible as they overlaid within 10% of the pre-melt scan.
Peptide helicity was determined by quantifying the CD signal at 222 nm of peptide only samples. Thermal denaturation experiments were then used to determine the Tm of peptide-c-Jun heterodimers, which was used as an approximate measure of target engagement. […] The same 60 amino acid c-Jun bZIP construct was used for all experiments, regardless of antagonist peptide length.

cJun bZIP [2] = target: T1, cJun bZIP (human, UniProt P05412 252-308, limits assumed); assay: CD thermal denaturation, peptide 5 µM and c-Jun 5 µM
T1 construct: Purified from a His-SUMO fusion with the tag cleaved off; also called c-Jun bZIP domain; 60 amino acid c-Jun bZIP construct
T1 chain: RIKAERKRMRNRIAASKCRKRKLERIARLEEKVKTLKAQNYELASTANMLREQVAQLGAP

cJun bZIP [3] = target: T1, cJun bZIP; assay: cell-based or functional assay
cJun bZIP [4] = target: T1, cJun bZIP; assay: ITC (PEAQ-ITC), peptide injected into cJun, one site model

Molecule | Tm (° C.) (cJun bZIP [1]) [°C] | Tm (° C.) of peptide-c-Jun heterodimer (cJun bZIP [2]) [° C.] | IC50 CD (cJun bZIP [3]) [µM] | other results
Ac-EAEELVVEEKVLEDEIEQLEERNYALRKEIEDLQKQ-NH2 [Peptide 16] | 54.9 ± 1.2 | – | – | –
CC[C@H](C)[C@H](NC(=O)[C@H](CCC(=O)O)NC(=O)[C@H](CCCCN)NC(=O)[C@H](CCCNC(=N)N)NC(=O)[C@H](CC(C)C)NC(=O)[C@H](C)NC(=O)[C@H](Cc1ccc(O)cc1)NC(=O)[C@H](CC(N)=O)NC(=O)[C@H](CCCNC(=N)N)NC(=O)[C@@H]1CC(=O)NCCCC[C@H](NC(=O)[C@@H](NC(=O)[C@H](CCC(=O)O)NC(=O)[C@H](CCC(=O)O)NC(=O)[C@H](CCC(=O)O)NC(=O)[C@H](CC(C)C)NC(=O)[C@@H](NC(=O)[C@H](CC(=O)O)NC(=O)[C@H](CCC(=O)O)NC(=O)[C@H](CCC(=O)O)NC(=O)[C@@H](NC(=O)[C@@H](NC(=O)[C@H](CC(C)C)NC(=O)[C@H](CCC(=O)O)NC(=O)[C@H](CCC(=O)O)NC(=O)[C@H](C)NC(=O)[C@H](CCC(=O)O)NC(C)=O)C(C)C)C(C)C)C(C)C)[C@@H](C)CC)C(=O)N[C@@H](CCC(N)=O)C(=O)N[C@@H](CC(C)C)C(=O)N[C@@H](CCC(=O)O)C(=O)N1)C(=O)N[C@@H](CCC(=O)O)C(=O)N[C@@H](CC(=O)O)C(=O)N[C@@H](CC(C)C)C(=O)N[C@@H](CCC(N)=O)C(=O)N[C@@H](CCCCN)C(=O)N[C@@H](CCC(N)=O)C(N)=O [Peptide 19] (Ac-EAEELVVEEDVLEEEIKQLEDRNYALRKEIEDLQKQ-NH2; lactam 17-21 (inferred)) | 60.9 ± 3.6 | – | – | –
Ac-EAEELVVEEDVLEEEIEQLEERNYALRKEIKDLQDQ-NH2 [Peptide 22] | 55.6 ± 1.2 | – | – | –
CC[C@H](C)[C@H](NC(=O)[C@H](CCC(=O)O)NC(=O)[C@@H]1CC(=O)NCCCC[C@H](NC(=O)[C@H](CC(N)=O)NC(=O)[C@H](CCCCN)NC(=O)[C@H](CCC(=O)O)NC(=O)[C@H](CCC(=O)O)NC(=O)[C@H](CC(C)C)NC(=O)[C@H](CCC(N)=O)NC(=O)[C@H](CCC(=O)O)NC(=O)[C@@H](NC(=O)[C@H](CCC(=O)O)NC(=O)[C@H](CCC(=O)O)NC(=O)[C@H](CCC(=O)O)NC(=O)[C@H](CC(C)C)NC(=O)[C@@H](NC(=O)[C@H](CC(=O)O)NC(=O)[C@H](CCC(=O)O)NC(=O)[C@H](CCC(=O)O)NC(=O)[C@@H](NC(=O)[C@@H](NC(=O)[C@H](CC(C)C)NC(=O)[C@H](CCC(=O)O)NC(=O)[C@H](CCC(=O)O)NC(=O)[C@H](C)NC(=O)[C@H](CCC(=O)O)NC(C)=O)C(C)C)C(C)C)C(C)C)[C@@H](C)CC)C(=O)N[C@@H](C)C(=O)N[C@@H](CC(C)C)C(=O)N[C@@H](CCCCN)C(=O)N1)C(=O)N[C@@H](CCC(=O)O)C(=O)N[C@@H](CC(=O)O)C(=O)N[C@@H](CC(C)C)C(=O)N[C@@H](CCC(N)=O)C(=O)N[C@@H](CCCCN)C(=O)N[C@@H](CCC(N)=O)C(=O)N[C@@H](Cc1ccc(O)cc1)C(N)=O [Peptide 21] (Ac-EAEELVVEEDVLEEEIEQLEEKNKALKDEIEDLQKQY-NH2; lactam 24-28) | 58.9 ± 1.0 | – | – | –
Ac-KEAEDLVVEEDVLEEEIEQLEERNYALRKEIKDLQDQ-NH2 [Peptide 12] | 56.5 ± 1.6 | – | – | –
Ac-LVVEEDVLEEEIEQLEERNYALRKEIEDLQKQLEDL-NH2 [Peptide 9] | 62.1 ± 1.4 | – | – | –
Ac-EAEELVVEEDVLEEEIEQLEEKNKALKDEIEDLQKQY-NH2 [Peptide 20] | 56.2 ± 1.3 | – | – | –
Ac-EAEELVVEEDVLEEEIEQLEERNYALRKEIEDLQ-NH2 [Peptide 28] | 53.8 ± 5.3 | – | – | –
Ac-EDVLEEEIEQLEERNYALRKEIEDLQKQLEKLY-NH2 [Peptide 7] | 64.3 ± 1.3 | – | – | –
Ac-EAEELVVEEDVLEEEIKQLEDRNYALRKEIEDLQKQ-NH2 [Peptide 18] | 55.5 ± 1.7 | – | – | –
Ac-EAKELVDEEDVLEEEIEQLEERNYALRKEIEDLQKQ-NH2 [Peptide 14] | 57.5 ± 1.1 | – | – | –
Ac-EAEELVVEEDVLEEEIEQLEERNYALRKEIEDLQ-NH2 (Synthetic, NΔ20 CΔ9; also called linear form of 28/29) [HingeW variant peptide 28] | – | 53.8 | 725 | –
Ac-KEAEDLVVEEDVLEEEIEQLEERNYALRKEIKDLQDQ-NH2 (Synthetic, NΔ19 CΔ7; also called linear form of 12/13) [HingeW variant peptide 12] | – | 56.5 | 115 | –
Ac-LVVEEDVLEEEIEQLEEKNKALKDEIEDLQKQLEKLY-NH2 (also: table prints a different, shorter sequence for 7/8, also called linear form of 7/8) [HingeW variant peptide 7] | – | 64.3 | 83.9 | –
Ac-EAEELVVEEDVLEEEIEQLEERNYALRKEIEDLQKQLEKL-NH2 (Synthetic, NΔ20 CΔ3) [HingeW variant peptide 4] | – | 64.1 | 45.4 | -TΔS (cJun bZIP [4]): 35.7 kcal/mol; Kd (cJun bZIP [4]): 0.0911 µM; Stoichiometry, n (cJun bZIP [4]): 0.91; ΔG (cJun bZIP [4]): -9.68 kcal/mol; ΔH (cJun bZIP [4]): -45.4 kcal/mol
Ac-EAEELVVEEDVLEEEIEQLEERNYALRKEIKDLQDQ-NH2 (Synthetic, NΔ20 CΔ7; also called linear form of 22/23) [HingeW peptide variant 22] | – | 55.6 | 101 | –
Ac-EAEELVVEEKVLEDEIEQLEERNYALRKEIEDLQKQ-NH2 (Synthetic, NΔ20 CΔ7; also called linear form of 16/17) [HingeW variant peptide 16] | – | 54.9 | 114 | –
Ac-EAEELVVEEDVLEEEIKQLEDRNYALRKEIEDLQKQ-NH2 (lactam 17-21; SMILES CC[C@H](C)[C@H](NC(=O)[C@H](CCC(=O)O)NC(=O)[C@H](CCCCN)NC(=O)[C@H](CCCNC(=N)N)NC(=O)[C@H](CC(C)C)NC(=O)[C@H](C)NC(=O)[C@H](Cc1ccc(O)cc1)NC(=O)[C@H](CC(N)=O)NC(=O)[C@H](CCCNC(=N)N)NC(=O)[C@@H]1CC(=O)NCCCC[C@H](NC(=O)[C@@H](NC(=O)[C@H](CCC(=O)O)NC(=O)[C@H](CCC(=O)O)NC(=O)[C@H](CCC(=O)O)NC(=O)[C@H](CC(C)C)NC(=O)[C@@H](NC(=O)[C@H](CC(=O)O)NC(=O)[C@H](CCC(=O)O)NC(=O)[C@H](CCC(=O)O)NC(=O)[C@@H](NC(=O)[C@@H](NC(=O)[C@H](CC(C)C)NC(=O)[C@H](CCC(=O)O)NC(=O)[C@H](CCC(=O)O)NC(=O)[C@H](C)NC(=O)[C@H](CCC(=O)O)NC(C)=O)C(C)C)C(C)C)C(C)C)[C@@H](C)CC)C(=O)N[C@@H](CCC(N)=O)C(=O)N[C@@H](CC(C)C)C(=O)N[C@@H](CCC(=O)O)C(=O)N1)C(=O)N[C@@H](CCC(=O)O)C(=O)N[C@@H](CC(=O)O)C(=O)N[C@@H](CC(C)C)C(=O)N[C@@H](CCC(N)=O)C(=O)N[C@@H](CCCCN)C(=O)N[C@@H](CCC(N)=O)C(N)=O, Synthetic, NΔ20 CΔ7; also called cyclised form of 18/19) [HingeW variant peptide 19] | – | 60.9 | 94.4 | –
Ac-EAEELVVEEKVLEDEIEQLEERNYALRKEIKDLQDQ-NH2 (lactam 10-14, 31-35; SMILES CC[C@H](C)[C@H](NC(=O)[C@H](CCC(=O)O)NC(=O)[C@H](CCCCN)NC(=O)[C@H](CCCNC(=N)N)NC(=O)[C@H](CC(C)C)NC(=O)[C@H](C)NC(=O)[C@H](Cc1ccc(O)cc1)NC(=O)[C@H](CC(N)=O)NC(=O)[C@H](CCCNC(=N)N)NC(=O)[C@H](CCC(=O)O)NC(=O)[C@H](CCC(=O)O)NC(=O)[C@H](CC(C)C)NC(=O)[C@H](CCC(N)=O)NC(=O)[C@H](CCC(=O)O)NC(=O)[C@@H](NC(=O)[C@H](CCC(=O)O)NC(=O)[C@@H]1CC(=O)NCCCC[C@H](NC(=O)[C@H](CCC(=O)O)NC(=O)[C@H](CCC(=O)O)NC(=O)[C@@H](NC(=O)[C@@H](NC(=O)[C@H](CC(C)C)NC(=O)[C@H](CCC(=O)O)NC(=O)[C@H](CCC(=O)O)NC(=O)[C@H](C)NC(=O)[C@H](CCC(=O)O)NC(C)=O)C(C)C)C(C)C)C(=O)N[C@@H](C(C)C)C(=O)N[C@@H](CC(C)C)C(=O)N[C@@H](CCC(=O)O)C(=O)N1)[C@@H](C)CC)C(=O)N[C@H]1CCCCNC(=O)C[C@@H](C(=O)N[C@@H](CCC(N)=O)C(N)=O)NC(=O)[C@H](CCC(N)=O)NC(=O)[C@H](CC(C)C)NC(=O)[C@H](CC(=O)O)NC1=O, Synthetic, NΔ20 CΔ7; also called double lactamised peptide) [HingeW peptide variant 24 (HW30)] | – | 63.2 | 44.9 | -TΔS (cJun bZIP [4]): 19.6 kcal/mol; Kd (cJun bZIP [4]): 0.00969 µM; Stoichiometry, n (cJun bZIP [4]): 1.05; ΔG (cJun bZIP [4]): -10.9 kcal/mol; ΔH (cJun bZIP [4]): -30.5 kcal/mol
Ac-EAKELVDEEDVLEEEIEQLEERNYALRKEIEDLQKQ-NH2 (Synthetic, NΔ20 CΔ7; also called linear form of 14/15) [HingeW variant peptide 14] | – | 57.5 | 100 | –
Ac-EAEELVVEEDVLEEEIKQLEDRNYALRKEIEDLQKQ-NH2 (Synthetic, NΔ20 CΔ7; also called linear form of 18/19) [HingeW variant peptide 18] | – | 55.5 | 98.9 | –
Ac-EAEELVVEEDVLEEEIEQLEEKNKALKDEIEDLQKQY-NH2 (Synthetic, NΔ20 CΔ7; also called linear form of 20/21) [HingeW variant peptide 20] | – | 56.2 | 121 | –
Ac-LVVEEDVLEEEIEQLEERNYALRKEIEDLQKQLEDL-NH2 (Synthetic, NΔ24 CΔ3; also called linear form of 9/10) [HingeW variant peptide 9] | – | 62.1 | 94.6 | –
Ac-EAEELVVEEDVLEEEIEQLEEKNKALKDEIEDLY-NH2 [HingeW variant peptide 26] | – | – | 1560 | –
Ac-EAEELVVEEDVLEEEIEQLEEKNKALKDEIEDLQKQY-NH2 (lactam 24-28 (inferred), Synthetic, NΔ20 CΔ7; also called cyclised form of 20/21) [HingeW variant peptide 21] | – | 58.9 | 94.1 | –
